The source of these data is paper PMC3278561 (Plant Cell Reports, 2011).

The series deals with the molecule itself. Description: transmission electron microscopy.

B1: plant-derived Norwalk virus capsid protein (NVCP), assembled as virus-like particles (VLP) (natural protein)
chain: MMMASKDATSSVDGASGAGQLVPEVNASDPLAMDPVAGSSTAVATAGQVNPIDPWIINNFVQAPQGEFTISPNNTPGDVLFDLSLGPHLNPFLLHLSQMYNGWVGNMRVRIMLAGNAFTAGKIIVSCIPPGFGSHNLTIAQATLFPHVIADVRTLDPIEVPLEDVRNVLFHNNDRNQQTMRLVCMLYTPLRTGGGTGDSFVVAGRVMTCPSPDFNFLFLVPPTVEQKTRPFTLPNLPLSSLSNSRAPLPISSMGISPDNVQSVQFQNGRCTLDGRLVGTTPVSLSHVAKIRGTSNGTVINLTELDGTPFHPFEGPAPIGFPDLGGCDWHINMTQFGHSSQTQYDVDTTPDTFVPHLGSIQANGIGSGNYVGVLSWISPPSHPSGSQVDLWKIPNYGSSITEATHLAPSVYPPGFGEVLVFFMSKMPGPGAYNLPCLLPQEYISHLASEQAPTVGEAALLHYVDPDTGRNLGEFKAYPDGFLTCVPNGASSGPQQLPINGVFVFVSWVSRFYQLKPVGTASSARGRLGLRR
Consider B1, for which the binding result is on record as “binds”.
